Measurements taken from patent publication US20180273635A1 (Zymeworks, published 2018).

Assays:
[1] = molecular target: T1, HER2 expressed on the surface of cells (human, UniProt P04626 23-1255); experiment: cell-based or functional assay
[2] = molecular target: T1, HER2 expressed on the surface of cells; experiment: flow cytometry on SKBR3 cells, n=1
Experimental: (§1) Binding of the test antigen-binding constructs to the surface of HER2+ cells was determined by flow cytometry. Cells were washed with PBS and resuspended in DMEM at 1×10⁵ cells/100 μl. 100 μl cell suspension was added into each microcentrifuge tube, followed by 10 μl/tube of the antigen-binding constructs. The tubes were incubated for 2 hr at 4° C. on a rotator. The microcentrifuge tubes were centrifuged for 2 min 2000 RPM at room temperature and the cell pellets washed with 500 μl media. Each cell pellet was resuspended in 100 μl of fluorochrome-labelled secondary antibody diluted in media to 2 μg/sample. The samples were then incubated for lhr at 4° C. on a rotator. After incubation, the cells were centrifuged for 2 min at 2000 rpm and washed in media. The cells were resuspended in 500 μl media, filtered, transferred to a tube containing 5 μl propidium iodide (PI) and analyzed on a BD LSR II flow cytometer according to the manufacturer's instructions. The B50 of the tested antigen-binding constructs was assessed by FACS with data analysis and curve fitting performed in GraphPad Prism. The experiment was carried out once (n=1) in SKBr3 cells, and twice (n=2) in SKOV3, MCF7, and BT-474 cells.
(§2) The experiment was performed once (n=1) in each cell line.

[3] = molecular target: T1, HER2 expressed on the surface of cells; experiment: cell-based or functional assay; remark: listed apart in the source
[4] = molecular target: T1, HER2 expressed on the surface of cells; experiment: flow cytometry on BT474 cells, n=1
Experimental: as §1, §2

[5] = molecular target: T1, HER2 expressed on the surface of cells; experiment: flow cytometry on SKBR3 cells, n=1; B50 = concentration at 50% of Bmax
Experimental: as §1, §2

[6] = molecular target: T1, HER2 expressed on the surface of cells; experiment: cell-based or functional assay; remark: listed apart in the source
[7] = molecular target: T1, HER2 expressed on the surface of cells; experiment: flow cytometry on MCF7 cells (low HER2), n=1
Experimental: as §1, §2

[8] = molecular target: T1, HER2 expressed on the surface of cells; experiment: cell-based or functional assay; remark: listed apart in the source
[9] = molecular target: T1, HER2 expressed on the surface of cells; experiment: flow cytometry on BT474 cells, n=1; B50 = concentration at 50% of Bmax
Experimental: as §1, §2

[10] = molecular target: T1, HER2 expressed on the surface of cells; experiment: cell-based or functional assay; remark: listed apart in the source
[11] = molecular target: T1, HER2 expressed on the surface of cells; experiment: flow cytometry on MCF7 cells (low HER2), n=1; B50 = concentration at 50% of Bmax
Experimental: as §1, §2

Recombinant human HER2 [12] = molecular target: T2, Recombinant human HER2 (human, UniProt P04626 23-652); experiment: calculated from the SPR Ka ratio to WT, -RTln(Ka,mut/Ka,WT), 298 K
T2 construct: extracellular domain; Analyte of the SPR assays; also called HER2 ECD; ECD2 of HER2

Recombinant human HER2 [13] = molecular target: T2, Recombinant human HER2; experiment: SPR post-SEC (value taken over from Table 5); Ka ratio to WT v10013
Experimental: The affinity towards HER2 ECD of the samples was measured by SPR on a Biacore T200 as follows. Between 2000 and 4000 RU of anti-human Fc injected at concentration between 5 and 10 μg/ml was immobilized on a CM5 chip using standard amine coupling. Antigen-binding constructs were captured on the anti-human Fc (injected at concentration at 0.51 microg/mL in PBST, 1 min at 10 microl/min) at response levels ranging from 120-270 RU. […] HER2 dilutions were analyzed in duplicates. Sensograms were fit globally to a 1: 1 Langmuir binding model, using the software provided with the Biacore T200. All experiments were conducted at 25° C.
The affinity of antigen-binding constructs in OA format was determined by SPR following protein A purification. […] Antigen-binding constructs in FSA format were purified by protein A affinity and SEC prior to assessment of affinity by SPR.

Binder	growth inhibition IC50 (potency), BT474 cells [1]	growth inhibition span (percentage of cells killed), BT474 cells [1]	growth inhibition span ratio to WT, BT474 cells [1]	Bmax [2]	growth inhibition IC50 (potency), BT474 cells + EGF [3]	growth inhibition span (percentage of cells killed), BT474 cells + EGF [3]	growth inhibition span ratio to WT, BT474 cells + EGF [3]	Bmax [4]	B50 [5]	growth inhibition IC50 (potency), SKBR3 cells [6]	growth inhibition span (percentage of cells killed), SKBR3 cells [6]	growth inhibition span ratio to WT, SKBR3 cells [6]	Bmax [7]	growth inhibition IC50 (potency), NCI-N87 cells, 5 days [8]	growth inhibition span (percentage of cells killed), NCI-N87 cells [8]	increase in efficacy with respect to the WT, NCI-N87 cells [8]	increase in potency with respect to the WT, NCI-N87 cells [8]	B50 [9]	ΔΔG (Recombinant human HER2 [12])	Ka, mut/Ka, WT (Recombinant human HER2 [13])	further results
Variant 14019 (antibody, name in Kabat numbering, V domains shown, also called v14019) VH: EVQLVESGGGLVQPGGSLRLSCAASGFTFQDYTMDWVRQAPGKGLEWVGDVNPNSGGSIYNQRFKGRFTFSVDRSWNTLYLQMNSLRAEDTAVYYCARNLGPSFYFDYWGQGTLVTVSS VL: DIQMTQSPSSLSASVGDRVTITCKASQDVSIGVAWYQQKPGKAPKLLIYSASYRYTGVPSRFSGSGSGTDFTLTISSLQPEDFATYYCQQYYIYPYTFGQGTKVEIKR	0.51 nM	32%	3 fold	29000 MFI	1.1 nM	33%	1.8 fold	23000 MFI	14 nM	0.25 nM	25%	1.5 fold	670 MFI	4.1 nM	37%	2.2 fold	2.2 fold	2.9 nM	–	–	growth inhibition span (percentage of cells killed), MDA-MB-175 cells [10]: 85%; B50 [11]: 1.4 nM
Variant 14020 (antibody, name in Kabat numbering, V domains shown, also called v14020) VH: EVQLVESGGGLVQPGGSLRLSCAASGFTFQDYTMDWVRQAPGKGLEWVGDVNPNSGGSIYNQRFKGRFTFSVDRSKNTLYLQMNSLRAEDTAVYYCARNLGPWFYFDYWGQGTLVTVSS VL: DIQMTQSPSSLSASVGDRVTITCKASQDVSIGVAWYQQKPGKAPKLLIYSASYRYTGVPSRFSGSGSGTDFTLTISSLQPEDFATYYCQQYYIYPYTFGQGTKVEIKR	0.55 nM	27%	2.6 fold	33000 MFI	1.7 nM	37%	2 fold	22000 MFI	21 nM	0.17 nM	26%	1.6 fold	640 MFI	3.5 nM	55%	3.2 fold	2.6 fold	4.1 nM	–	–	growth inhibition span (percentage of cells killed), MDA-MB-175 cells [10]: 80%; B50 [11]: 2.6 nM
Variant 14018 (antibody, name in Kabat numbering, V domains shown, also called v14018) VH: EVQLVESGGGLVQPGGSLRLSCAASGFTFTDYTMDWVRQAPGKGLEWVGDVNPNSGGSIYNQRFKGRFTFSVDRSWNTLYLQMNSLRAEDTAVYYCARNLGPSFYFDYWGQGTLVTVSS VL: DIQMTQSPSSLSASVGDRVTITCKASQDVSIGVAWYQQKPGKAPKLLIWSASYRYTGVPSRFSGSGSGTDFTLTISSLQPEDFATYYCQQYYIYPYTFGQGTKVEIKR	0.66 nM	30%	2.8 fold	32000 MFI	1.7 nM	33%	1.8 fold	22000 MFI	8.4 nM	0.28 nM	29%	1.7 fold	680 MFI	2.1 nM	32%	1.9 fold	4.3 fold	2.4 nM	–	–	growth inhibition span (percentage of cells killed), MDA-MB-175 cells [10]: 85%; B50 [11]: 0.9 nM
Variant 12514 (antibody, human IgG1, kappa, OA (one-armed) format; clones 7852, 1811, 4372; also called v12514) heavy: EVQLVESGGGLVQPGGSLRLSCAASGFTFTDYTMDWVRQAPGKGLEWVADVNPNSGGSIYNQRFKGRFTLSVDRSKNTLYLQMNSLRAEDTAVYYCARNLGPWFYFDYWGQGTLVTVSSASTKGPSVFPLAPSSKSTSGGTAALGCLVKDYFPEPVTVSWNSGALTSGVHTFPAVLQSSGLYSLSSVVTVPSSSLGTQTYICNVNHKPSNTKVDKKVEPKSCDKTHTCPPCPAPELLGGPSVFLFPPKPKDTLMISRTPEVTCVVVDVSHEDPEVKFNWYVDGVEVHNAKTKPREEQYNSTYRVVSVLTVLHQDWLNGKEYKCKVSNKALPAPIEKTISKAKGQPREPQVYVYPPSRDELTKNQVSLTCLVKGFYPSDIAVEWESNGQPENNYKTTPPVLDSDGSFALVSKLTVDKSRWQQGNVFSCSVMHEALHNHYTQKSLSLSPG light: not shown not shown	–	–	–	–	–	–	–	–	–	–	–	–	–	–	–	–	–	–	-0.9 kcal/mol	4.5 fold	–
Variant 12610 (antibody, human IgG1, kappa, OA (one-armed) format; clones 3376, 1811, 4372; also called v12610) heavy: EVQLVESGGGLVQPGGSLRLSCAASGFTFADYTMDWVRQAPGKGLEWVADVNPNSGGSIYNQRFKGRFTLSVDRSKNTLYLQMNSLRAEDTAVYYCARNLGPSFYFDYWGQGTLVTVSSASTKGPSVFPLAPSSKSTSGGTAALGCLVKDYFPEPVTVSWNSGALTSGVHTFPAVLQSSGLYSLSSVVTVPSSSLGTQTYICNVNHKPSNTKVDKKVEPKSCDKTHTCPPCPAPELLGGPSVFLFPPKPKDTLMISRTPEVTCVVVDVSHEDPEVKFNWYVDGVEVHNAKTKPREEQYNSTYRVVSVLTVLHQDWLNGKEYKCKVSNKALPAPIEKTISKAKGQPREPQVYVYPPSRDELTKNQVSLTCLVKGFYPSDIAVEWESNGQPENNYKTTPPVLDSDGSFALVSKLTVDKSRWQQGNVFSCSVMHEALHNHYTQKSLSLSPG light: not shown not shown	–	–	–	–	–	–	–	–	–	–	–	–	–	–	–	–	–	–	-0.9 kcal/mol	4.5 fold	–
Variant 12538 (antibody, human IgG1, kappa, OA (one-armed) format; clones 3057, 7919, 4372; also called v12538) heavy: EVQLVESGGGLVQPGGSLRLSCAASGFTFTDYTMDWVRQAPGKGLEWVADVNPNSGGSIYNQRFKGRFTLSVDRSKNTLYLQMNSLRAEDTAVYYCARNLGPSFYFDYWGQGTLVTVSSASTKGPSVFPLAPSSKSTSGGTAALGCLVKDYFPEPVTVSWNSGALTSGVHTFPAVLQSSGLYSLSSVVTVPSSSLGTQTYICNVNHKPSNTKVDKKVEPKSCDKTHTCPPCPAPELLGGPSVFLFPPKPKDTLMISRTPEVTCVVVDVSHEDPEVKFNWYVDGVEVHNAKTKPREEQYNSTYRVVSVLTVLHQDWLNGKEYKCKVSNKALPAPIEKTISKAKGQPREPQVYVYPPSRDELTKNQVSLTCLVKGFYPSDIAVEWESNGQPENNYKTTPPVLDSDGSFALVSKLTVDKSRWQQGNVFSCSVMHEALHNHYTQKSLSLSPG light: not shown not shown	–	–	–	–	–	–	–	–	–	–	–	–	–	–	–	–	–	–	-0.9 kcal/mol	4.8 fold	–
Variant 12536 (antibody, human IgG1, kappa, OA (one-armed) format; clones 3057, 7917, 4372; also called v12536) heavy: EVQLVESGGGLVQPGGSLRLSCAASGFTFTDYTMDWVRQAPGKGLEWVADVNPNSGGSIYNQRFKGRFTLSVDRSKNTLYLQMNSLRAEDTAVYYCARNLGPSFYFDYWGQGTLVTVSSASTKGPSVFPLAPSSKSTSGGTAALGCLVKDYFPEPVTVSWNSGALTSGVHTFPAVLQSSGLYSLSSVVTVPSSSLGTQTYICNVNHKPSNTKVDKKVEPKSCDKTHTCPPCPAPELLGGPSVFLFPPKPKDTLMISRTPEVTCVVVDVSHEDPEVKFNWYVDGVEVHNAKTKPREEQYNSTYRVVSVLTVLHQDWLNGKEYKCKVSNKALPAPIEKTISKAKGQPREPQVYVYPPSRDELTKNQVSLTCLVKGFYPSDIAVEWESNGQPENNYKTTPPVLDSDGSFALVSKLTVDKSRWQQGNVFSCSVMHEALHNHYTQKSLSLSPG light: not shown not shown	–	–	–	–	–	–	–	–	–	–	–	–	–	–	–	–	–	–	-0.8 kcal/mol	4 fold	–
